B1: Pistol ribozyme (parent)
chain: GGGUCGUUGUUCCAUAAUCGCGUGGAUAUGGCACGCAAGUUUCUACCGGGCACCGUAAAUGUCCGACUGGAGCCGUUCGGGCGGCUAUAAACAGACCUCAGGCCCGAAGCGUGGCGGCACCUGCCGCCGGUGGUAAAAAAGAUCGGAAGAGCACACGUCU

Variants of: B1
Assay: aptazyme ON/OFF ratio, guanine; higher = stronger switching; co-transcriptional cleavage with and without guanine
For U7A U8C G9A U10G U11G C12G, the “aptazyme ON/OFF ratio” value was 1.44. For U7G U8G G9C U11G C12U C13A, the “aptazyme ON/OFF ratio” value was 1.3. With U7G U8C U10G U11C C13U the “aptazyme ON/OFF ratio” value was 1.4. With U8C U10G C12U C13U the “aptazyme ON/OFF ratio” value was 1.2. For U7A U10G U11A, the “aptazyme ON/OFF ratio” value was 1.06. For U7G U8A U10C C12G, the “aptazyme ON/OFF ratio” value was 1.46. With U7A U8G G9C U10G U11C C12G C13A the “aptazyme ON/OFF ratio” value was 1.27. In the case of U7C U8A C13U, the “aptazyme ON/OFF ratio” value is reported as 1.71. With U7G U8G the “aptazyme ON/OFF ratio” value was 1.29. In the case of U7C U8C G9A U10A U11A C12U C13A, the “aptazyme ON/OFF ratio” value is reported as 1.27. For U7G U8C G9C U11A C12A, the “aptazyme ON/OFF ratio” value was 1.19. In the case of U8C G9U, the “aptazyme ON/OFF ratio” value is reported as 2.46. For U8A U10G U11A, the “aptazyme ON/OFF ratio” value was 1.09. With U7A U10C U11G C12U C13U the “aptazyme ON/OFF ratio” value was 1.2. With G9A U10C U11A C12G C13U the “aptazyme ON/OFF ratio” value was 1.36. With G9A U10G C12U C13U the “aptazyme ON/OFF ratio” value was 1.05. In the case of U7G U8A G9C U10A U11C C12G C13U, the “aptazyme ON/OFF ratio” value is reported as 1.04. With G9U U10C U11G C12U C13A the “aptazyme ON/OFF ratio” value was 1.46. In the case of U7C U8C G9A C12G, the “aptazyme ON/OFF ratio” value is reported as 1.41. With U7G U8G G9U U11C C12A C13A the “aptazyme ON/OFF ratio” value was 1.23. For U7C G9A U10A U11A C12A C13G, the “aptazyme ON/OFF ratio” value was 1.23. For U7A G9U U10C U11C C12A C13U, the “aptazyme ON/OFF ratio” value was 1.07. In the case of U7C U8G G9U U11G C12A C13U, the “aptazyme ON/OFF ratio” value is reported as 1.21. With U7C U8A U10C U11G C13U the “aptazyme ON/OFF ratio” value was 1.16. For U8G G9U U10A U11C C12U C13G, the “aptazyme ON/OFF ratio” value was 1.05. With U7G U8C G9C U10G U11C C12A C13U the “aptazyme ON/OFF ratio” value was 1.36. In the case of U7A U8G G9A U10G, the “aptazyme ON/OFF ratio” value is reported as 1.43. With U7C U8A G9A U11A C13U the “aptazyme ON/OFF ratio” value was 1.14. With U7C U8A G9U U10C U11G C12G C13A the “aptazyme ON/OFF ratio” value was 1.16. With U7A U8G G9C U10G C12U C13A the “aptazyme ON/OFF ratio” value was 1.48. For U8G G9C U10A U11A C13G, the “aptazyme ON/OFF ratio” value was 1.04. With U7A U8C U10A U11A C12U the “aptazyme ON/OFF ratio” value was 1.18. For U7G U8A G9A U10G C12G C13A, the “aptazyme ON/OFF ratio” value was 1.1. For U8G G9A U10C U11G C12A C13G, the “aptazyme ON/OFF ratio” value was 1.18. For U7A G9A U10C C12G C13A, the “aptazyme ON/OFF ratio” value was 1.15. In the case of U7G U8A U10C C13G, the “aptazyme ON/OFF ratio” value is reported as 1.09. In the case of G9U U10A U11A C12G C13A, the “aptazyme ON/OFF ratio” value is reported as 0.999. With U7C G9A U10G U11C C12A C13A the “aptazyme ON/OFF ratio” value was 1.2. For U7C U8A G9U U10G U11A C12U, the “aptazyme ON/OFF ratio” value was 1.06. With U7C U8C G9U U11C C12A the “aptazyme ON/OFF ratio” value was 1.17. For G9A U10C U11A C13U, the “aptazyme ON/OFF ratio” value was 1.3. In the case of U7A G9U U10A U11C C12U C13G, the “aptazyme ON/OFF ratio” value is reported as 1.12. In the case of U7A U8A U10G U11A C12A C13A, the “aptazyme ON/OFF ratio” value is reported as 1.64. In the case of U7C U8C U10G U11C C12A C13U, the “aptazyme ON/OFF ratio” value is reported as 1.15. In the case of U7G U8A G9C U11G C12U C13U, the “aptazyme ON/OFF ratio” value is reported as 1.19. In the case of U7G U8C G9C U11C C12U, the “aptazyme ON/OFF ratio” value is reported as 1.78. For U7A U8C U10C U11G C12G C13A, the “aptazyme ON/OFF ratio” value was 1.26. In the case of U7A, the “aptazyme ON/OFF ratio” value is reported as 3.28. With G9A U10A U11C the “aptazyme ON/OFF ratio” value was 1.08. In the case of U7C U8A G9U U10C U11A C12G C13U, the “aptazyme ON/OFF ratio” value is reported as 1.13. For U8G G9C U11A C13U, the “aptazyme ON/OFF ratio” value was 1.05. With U7A U8A G9U U11A C12U C13A the “aptazyme ON/OFF ratio” value was 1.04. For U8C G9C U10A U11G C12G, the “aptazyme ON/OFF ratio” value was 1.32. With G9A U10A C12U C13G the “aptazyme ON/OFF ratio” value was 1.24. With U7G U8C U10A U11A C13G the “aptazyme ON/OFF ratio” value was 1.18. In the case of U7C U8A G9C U11G, the “aptazyme ON/OFF ratio” value is reported as 1.13. For U7A U8G U10A U11A C12A C13A, the “aptazyme ON/OFF ratio” value was 1.34. For U7A U8G C12A, the “aptazyme ON/OFF ratio” value was 1.22. With U7G U8A G9U U10C C12A C13U the “aptazyme ON/OFF ratio” value was 1.15. In the case of U7C U8G G9C U10A U11G C13G, the “aptazyme ON/OFF ratio” value is reported as 1.03. In the case of U7G G9C U10G U11A C12G C13A, the “aptazyme ON/OFF ratio” value is reported as 1.14. In the case of U7G G9C U10G U11C C12A C13G, the “aptazyme ON/OFF ratio” value is reported as 1.23. With U7A U8A G9U U10A U11G C13G the “aptazyme ON/OFF ratio” value was 1.13. In the case of U7C U8G G9C U10G U11G C12A C13A, the “aptazyme ON/OFF ratio” value is reported as 1.15. For U7A U8C G9C U10A U11G C12U C13U, the “aptazyme ON/OFF ratio” value was 1.14. In the case of U7A U8G U10C U11A C12G C13G, the “aptazyme ON/OFF ratio” value is reported as 1.28. With U7G U8A U10C U11G C12G C13A the “aptazyme ON/OFF ratio” value was 1.26. With U7G U8A G9U U10G U11A C13U the “aptazyme ON/OFF ratio” value was 1.06. In the case of U8G G9U U10C U11G, the “aptazyme ON/OFF ratio” value is reported as 1.15. With U7A U8A G9C U10G C12U C13A the “aptazyme ON/OFF ratio” value was 1.22. With U7A U8A G9A U10A U11C C12A C13G the “aptazyme ON/OFF ratio” value was 1.14. In the case of U7C U8G G9U U10G U11C C13U, the “aptazyme ON/OFF ratio” value is reported as 1.16. For U8G G9C U10C C12A, the “aptazyme ON/OFF ratio” value was 1.05. For U7A U8A G9A U10C U11G C12G C13A, the “aptazyme ON/OFF ratio” value was 1.11. In the case of U7C U8A G9U U10C U11A C12A, the “aptazyme ON/OFF ratio” value is reported as 1.13. For U7G U8A G9C U10G U11G C12U, the “aptazyme ON/OFF ratio” value was 1.32. With U7A U8C G9C C12U C13G the “aptazyme ON/OFF ratio” value was 1.06. In the case of U8G G9C U10G U11C C12A, the “aptazyme ON/OFF ratio” value is reported as 1.05. With U8A G9C U10A U11A C12G C13G the “aptazyme ON/OFF ratio” value was 1.23. For U7C G9A U10A U11C C12U C13A, the “aptazyme ON/OFF ratio” value was 1.24. For U7G U8A U10A C12G C13U, the “aptazyme ON/OFF ratio” value was 1.47. With U8G U10A U11A C12A C13G the “aptazyme ON/OFF ratio” value was 1.11. With G9C U11C C12U the “aptazyme ON/OFF ratio” value was 1.14.
